According to PMC5019376:

B1: TIR1 (wild type, epitope-tagged, expressed in Nicotiana) [Arabidopsis] / GST-IAA3 [Arabidopsis] (parent)
chain 1: MQKRIALSFPEEVLEHVFSFIQLDKDRNSVSLVCKSWYEIERWCRRKVFIGNCYAVSPATVIRRFPKVRSVELKGKPHFADFNLVPDGWGGYVYPWIEAMSSSYTWLEEIRLKRMVVTDDCLELIAKSFKNFKVLVLSSCEGFSTDGLAAIAATCRNLKELDLRESDVDDVSGHWLSHFPDTYTSLVSLNISCLASEVSFSALERLVTRCPNLKSLKLNRAVPLEKLATLLQRAPQLEELGTGGYTAEVRPDVYSGLSVALSGCKELRCLSGFWDAVPAYLPAVYSVCSRLTTLNLSYATVQSYDLVKLLCQCPKLQRLWVLDYIEDAGLEVLASTCKDLRELRVFPSEPFVMEPNVALTEQGLVSVSMGCPKLESVLYFCRQMTNAALITIARNRPNMTRFRLCIIEPKAPDYLTLEPLDIGFGAIVEHCKDLRRLSLSGLLTDKVFEYIGTYAKKMEMLSVAFAGDSDLGMHHVLSGCDSLRKLEIRDCPFGDKALLANASKLETMRSLWMSSCSVSFGACKLLGQKMPKLNVEVIDERGAPDSRPESCPVERVFIYRTVAGPRFDMPGFVWNMDQDSTMRFSRQIITTNGL
chain 2: MDEFVNLKETELRLGLPGTDNVCEAKERVSCCNNNNKRVLSTDTEKEIESSSRKTETSPPRKAQIVGWPPVRSYRKNNIQSKKNESEHEGQGIYVKVSMDGAPYLRKIDLSCYKGYSELLKALEVMFKFSVGEYFERDGYKGSDFVPTYEDKDGDWMLIGDVPWEMFICTCKRLRIMKGSEAKGLGCGV

Variants of: B1
Assay: pull-down (semi in vitro, GST-IAA3 with Nicotiana cell extracts, anti-HA blot)
Settings: 10 µM 2,4-D

Variant | ratio to parent
chain 1 MQKRIALSFPEEVLEHVFSFIQLDKDRNSVSLVCKSWYEIERWCRRKVFIGNCYAVSPATVIRRFPKVRSVELKGKPHFADFNLVPDGWGGYVYPWIEAMSSSYTWLEEIRLKRMVVTDDCLELIAKSFKNFKVLVLSSCEAFSTDGLAAIAATCRNLKELDLRESDVDDVSGHWLSHFPDTYTSLVSLNISCLASEVSFSALERLVTRCPNLKSLKLNRAVPLEKLATLLQRAPQLEELGTGGYTAEVRPDVYSGLSVALSGCKELRCLSGFWDAVPAYLPAVYSVCSRLTTLNLSYATVQSYDLVKLLCQCPKLQRLWVLDYIEDAGLEVLASTCKDLRELRVFPSEPFVMEPNVALTEQGLVSVSMGCPKLESVLYFCRQMTNAALITIARNRPNMTRFRLCIIEPKAPDYLTLEPLDIGFGAIVEHCKDLRRLSLSGLLTDKVFEYIGTYAKKMEMLSVAFAGDSDLGMHHVLSGCDSLRKLEIRDCPFGDKALLANASKLETMRSLWMSSCSVSFGACKLLGQKMPKLNVEVIDERGAPDSRPESCPVERVFIYRTVAGPRFDMPGFVWNMDQDSTMRFSRQIITTNGL [chain 1 G142A] | 0.45
chain 1 MQKRIALSFPEEVLEHVFSFIQLDKDRNSVSLVCKSWYEIERWCRRKVFIGNCYAVSPATVIRRFPKVRSVELKGKPHFADFNLVPDGWGGYVYPWIEAMSSSYTWLEEIRLKRMVVTDDCLELIAKSFKNFKVLVLSSAEGFSTDGLAAIAATCRNLKELDLRESDVDDVSGHWLSHFPDTYTSLVSLNISCLASEVSFSALERLVTRCPNLKSLKLNRAVPLEKLATLLQRAPQLEELGTGGYTAEVRPDVYSGLSVALSGCKELRCLSGFWDAVPAYLPAVYSVCSRLTTLNLSYATVQSYDLVKLLCQCPKLQRLWVLDYIEDAGLEVLASTCKDLRELRVFPSEPFVMEPNVALTEQGLVSVSMGCPKLESVLYFCRQMTNAALITIARNRPNMTRFRLCIIEPKAPDYLTLEPLDIGFGAIVEHCKDLRRLSLSGLLTDKVFEYIGTYAKKMEMLSVAFAGDSDLGMHHVLSGCDSLRKLEIRDCPFGDKALLANASKLETMRSLWMSSCSVSFGACKLLGQKMPKLNVEVIDERGAPDSRPESCPVERVFIYRTVAGPRFDMPGFVWNMDQDSTMRFSRQIITTNGL [chain 1 C140A] | 0.62
chain 1 MQKRIALSFPEEVLEHVFSFIQLDKDRNSVSLVCKSWYEIERWCRRKVFIGNCYAVSPATVIRRFPKVRSVELKGKPHFADFNLVPDGWGGYVYPWIEAMSSSYTWLEEIRLKRMVVTDDCLELIAKSFKNFKVLVLSSCEGASTDGLAAIAATCRNLKELDLRESDVDDVSGHWLSHFPDTYTSLVSLNISCLASEVSFSALERLVTRCPNLKSLKLNRAVPLEKLATLLQRAPQLEELGTGGYTAEVRPDVYSGLSVALSGCKELRCLSGFWDAVPAYLPAVYSVCSRLTTLNLSYATVQSYDLVKLLCQCPKLQRLWVLDYIEDAGLEVLASTCKDLRELRVFPSEPFVMEPNVALTEQGLVSVSMGCPKLESVLYFCRQMTNAALITIARNRPNMTRFRLCIIEPKAPDYLTLEPLDIGFGAIVEHCKDLRRLSLSGLLTDKVFEYIGTYAKKMEMLSVAFAGDSDLGMHHVLSGCDSLRKLEIRDCPFGDKALLANASKLETMRSLWMSSCSVSFGACKLLGQKMPKLNVEVIDERGAPDSRPESCPVERVFIYRTVAGPRFDMPGFVWNMDQDSTMRFSRQIITTNGL [chain 1 F143A] | 0.5

The remaining lines, values ahead:

ratio to parent | Variant
0.46 | chain 1 MQKRIALSFPEEVLEHVFSFIQLDKDRNSVSLVCKSWYEIERWCRRKVFIGNCYAVSPATVIRRFPKVRSVELKGKPHFADFNLVPDGWGGYVYPWIEAMSSSYTWLEEIRLKRMVVTDDCLELIAKSFKNFKVLVLSSCEGFSTDGLAAAAATCRNLKELDLRESDVDDVSGHWLSHFPDTYTSLVSLNISCLASEVSFSALERLVTRCPNLKSLKLNRAVPLEKLATLLQRAPQLEELGTGGYTAEVRPDVYSGLSVALSGCKELRCLSGFWDAVPAYLPAVYSVCSRLTTLNLSYATVQSYDLVKLLCQCPKLQRLWVLDYIEDAGLEVLASTCKDLRELRVFPSEPFVMEPNVALTEQGLVSVSMGCPKLESVLYFCRQMTNAALITIARNRPNMTRFRLCIIEPKAPDYLTLEPLDIGFGAIVEHCKDLRRLSLSGLLTDKVFEYIGTYAKKMEMLSVAFAGDSDLGMHHVLSGCDSLRKLEIRDCPFGDKALLANASKLETMRSLWMSSCSVSFGACKLLGQKMPKLNVEVIDERGAPDSRPESCPVERVFIYRTVAGPRFDMPGFVWNMDQDSTMRFSRQIITTNGL [chain 1 I151A]
0.44 | chain 1 MQKRIALSFPEEVLEHVFSFIQLDKDRNSVSLVCKSWYEIERWCRRKVFIGNCYAVSPATVIRRFPKVRSVELKGKPHFADFNLVPDGWGGYVYPWIEAMSSSYTWLEEIRLKRMVATDDCLELIAKSFKNFKVLVLSSCEGFSTDGLAAIAATCRNLKELDLRESDVDDVSGHWLSHFPDTYTSLVSLNISCLASEVSFSALERLVTRCPNLKSLKLNRAVPLEKLATLLQRAPQLEELGTGGYTAEVRPDVYSGLSVALSGCKELRCLSGFWDAVPAYLPAVYSVCSRLTTLNLSYATVQSYDLVKLLCQCPKLQRLWVLDYIEDAGLEVLASTCKDLRELRVFPSEPFVMEPNVALTEQGLVSVSMGCPKLESVLYFCRQMTNAALITIARNRPNMTRFRLCIIEPKAPDYLTLEPLDIGFGAIVEHCKDLRRLSLSGLLTDKVFEYIGTYAKKMEMLSVAFAGDSDLGMHHVLSGCDSLRKLEIRDCPFGDKALLANASKLETMRSLWMSSCSVSFGACKLLGQKMPKLNVEVIDERGAPDSRPESCPVERVFIYRTVAGPRFDMPGFVWNMDQDSTMRFSRQIITTNGL [chain 1 V117A]
